Assay results reported in patent US20140286963A1 (Genentech, published 2014).
Residue numbers refer to the chain shown, from its start.

Legend:
[1] = target: T1, human BACE1 extracellular domain, amino acids 1-457 of SEQ ID NO:49 (human, UniProt P56817 22-457, biotinylated in the phage sorting, phage ELISAs and the competition ELISA (sites not given)); test: one-point phage competition ELISA: ratio of the ELISA signal of Fab-displaying phage on plate-immobilized BACE1 without / with 20 nM BACE1 in solution
T1 construct: also called human BACE1 ECD; hBACE1
Description: (§1) Screening of the libraries for affinity maturation of initially obtained antibodies was carried out similarly as described above. […] For rounds 2 and 3, 20 nM and 5 nM biotinylated BACE1 was incubated with amplified phage, respectively. Clones (96) from each of the two libraries were screened in a one-point competition ELISA, where 20 nM of BACE1 was used in solution to compete the phage particle from binding to plate-immobilized BACE1 as described below.
(§2) A plate immobilized with BACE1 was prepared by capturing 2 μg/ml biotinylated BACE1 for 15 min using a 384-well Maxisorp Immunoplate that was previously coated with 2 μg/ml of Neutravidin at 4° C. for overnight and blocked with Blocking Buffer. The culture supernatants from individual clones grown in a 96-well format were diluted 20-fold in PBT buffer and was incubated with or without 20 nM BACE1 at room temperature for 1 h. The mixture was transferred to the plate with immobilized BACE1 and incubated for 15 min. The plate was washed six times by PT buffer and the bound phage was detected by anti-M13-HRP as described above. The ratio between the ELISA signal from the well in the absence and the presence of BACE1 in solution indicates the affinity of the clone, where higher ratios indicate the higher affinities.

[2] = target: T1, human BACE1 extracellular domain, amino …; test: one-point competition phage ELISA, plate-immobilized BACE1, 20 nM BACE1 in solution
Description: as §1, §2

[3] = target: T1, human BACE1 extracellular domain, amino …; test: cell-based or functional assay
[4] = target: T1, human BACE1 extracellular domain, amino …; test: phage competition ELISA IC50, against parent Fab5
Description: (§3) Single colonies (in XL1 blue cells) of the selected clones were picked up and grown in 1 ml 2YT broth supplemented with 50 μg/ml carbenicillin, 10 μg/ml tetracycline and M13KO7 at 37° C. for 2 h. Kanamycin (25 μg/ml) was added to the culture, which continued to grow for 6 h. The culture was transferred to 30 ml 2YT broth supplemented with 50 μg/ml carbenicillin and 25 μg/mlkanamycin and grown at 37° C. overnight. Phage were harvested and purified as previously described (Sidhu, S. S. et al. Methods Enzymol. 328: 333-363 (2000)). The purified Fab-displaying phage were serially diluted in PBT buffer and tested for binding to BACE1 immobilized on a plate. A fixed phage concentration that gives 80% of saturation signals was selected for the subsequent competition ELISA. […] The plate was then washed for 8 times and bound phage were detected by anti-M13-HRP.
(§4) To estimate the affinity of these 6 clones, phage competition ELISAs were performed, as described above, and IC₅₀ values were determined (FIG. 7). The IC₅₀ values were determined by fitting the data to a four-parameter logistic equation developed by Marquardt (Marquardt, D. W. SIAM J. Appl. Math. 11: 431-441 (1963)) using Kaleidagraph (Synergy Software) and are shown below in Table 2.

[5] = target: T1, human BACE1 extracellular domain, amino …; test: phage competition ELISA: Fab-displaying phage on plate-immobilized BACE1, serial dilutions of BACE1 in solution
Description: Single colonies (in XL1 blue cells) of the selected clones were picked up and grown in 1 ml 2YT broth supplemented with 50 μg/ml carbenicillin, 10 μg/ml tetracycline and M13KO7 at 37° C. for 2 h. Kanamycin (25 μg/ml) was added to the culture, which continued to grow for 6 h. The culture was transferred to 30 ml 2YT broth supplemented with 50 μg/ml carbenicillin and 25 μg/mlkanamycin and grown at 37° C. overnight. Phage were harvested and purified as previously described (Sidhu, S. S. et al. Methods Enzymol. 328: 333-363 (2000)). The purified Fab-displaying phage were serially diluted in PBT buffer and tested for binding to BACE1 immobilized on a plate. A fixed phage concentration that gives 80% of saturation signals was selected for the subsequent competition ELISA. The competition was conducted by incubating the fixed, sub-saturating Fab-displaying phage with serial dilutions of BACE1 for 1 h and then transferred to the BACE1-immobulized plate for 15 min to capture unbound phage. The plate was then washed for 8 times and bound phage were detected by anti-M13-HRP.
as §4

[6] = target: T1, human BACE1 extracellular domain, amino …; test: cell-based or functional assay; remark: listed apart in the source
[7] = target: T1, human BACE1 extracellular domain, amino …; test: phage competition ELISA: Fab-displaying phage incubated with serial dilutions of BACE1 in solution, unbound phage captured on plate-immobilized BACE1, anti-M13-HRP, OD450
Description: as §3, §4

Guinea pig BACE1 = target: T2, Guinea pig BACE1 (Guinea pig); test: SPR (BIAcore-3000), IgG captured by anti-human Fc antibody, pH 7.0
T2 construct: The method text names only the human and murine ECD; The guinea pig construct is not described

[8] = target: BACE1 of primary mouse neurons (mouse, UniProt P56818 46-501); test: cell-based or functional assay
[9] = target: BACE1 of 293-HEK cells stably expressing wild-type human APP (UniProt P56817 46-501); test: cell-based or functional assay
[10] = target: T3, human BACE2 extracellular domain (human, UniProt Q9Y5Z0 21-473); test: SPR
T3 construct: extracellular domain; The extracellular domain is stated for the MCE enzyme assay; also called human recombinant BACE2 extracellular domain
T3 sequence (looked up): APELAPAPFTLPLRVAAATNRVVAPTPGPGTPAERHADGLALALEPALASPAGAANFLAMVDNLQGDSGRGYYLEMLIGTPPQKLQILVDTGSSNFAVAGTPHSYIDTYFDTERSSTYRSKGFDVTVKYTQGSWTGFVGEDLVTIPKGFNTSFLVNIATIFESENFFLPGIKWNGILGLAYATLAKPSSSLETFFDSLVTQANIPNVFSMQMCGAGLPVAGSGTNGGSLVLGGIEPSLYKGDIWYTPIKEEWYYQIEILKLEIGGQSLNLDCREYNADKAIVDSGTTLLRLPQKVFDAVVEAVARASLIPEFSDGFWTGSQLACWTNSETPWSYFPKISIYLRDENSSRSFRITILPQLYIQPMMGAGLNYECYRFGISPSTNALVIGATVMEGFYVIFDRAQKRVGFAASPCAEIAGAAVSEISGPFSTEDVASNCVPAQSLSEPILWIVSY

[11] = target: T1, human BACE1 extracellular domain, amino …; test: SPR (BIAcore-3000), second unlabelled row under Human, IgG captured by anti-human Fc antibody, pH 7.0
Description: (§5) Association rates (kₒₙ) and dissociation rates (koff) were calculated using a simple one-to-one Langmuir binding model (BIAcore™ Evaluation Software version 3.2). The equilibrium dissociation constant (KD) was calculated as the ratio koff/kₒₙ.

[12] = target: T1, human BACE1 extracellular domain, amino …; test: SPR (BIAcore-3000), IgG captured by anti-human Fc antibody, BACE1 ECD injected, 25 C, pH 7.0
Description: as §5

[13] = target: T1, human BACE1 extracellular domain, amino …; test: phage competition ELISA IC50, against parent Fab14
[14] = target: T1, human BACE1 extracellular domain, amino …; test: phage competition ELISA IC50; parent, reference for LC9, LC10 and LC6

BACE1 of primary mouse neurons, sequence (P56818 46-501): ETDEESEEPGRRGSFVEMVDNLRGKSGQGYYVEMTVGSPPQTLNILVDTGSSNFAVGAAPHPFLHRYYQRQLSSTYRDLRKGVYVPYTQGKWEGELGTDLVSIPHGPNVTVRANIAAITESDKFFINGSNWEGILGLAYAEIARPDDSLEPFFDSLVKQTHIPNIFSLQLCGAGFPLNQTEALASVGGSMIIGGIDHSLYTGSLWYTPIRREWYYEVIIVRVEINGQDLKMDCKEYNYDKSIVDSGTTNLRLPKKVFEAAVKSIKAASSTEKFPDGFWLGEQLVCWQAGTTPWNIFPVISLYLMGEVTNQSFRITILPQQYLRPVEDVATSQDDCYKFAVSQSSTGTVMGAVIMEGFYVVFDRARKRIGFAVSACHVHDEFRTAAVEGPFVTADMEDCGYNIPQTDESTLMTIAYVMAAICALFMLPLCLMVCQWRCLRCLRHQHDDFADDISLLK
T1 sequence (P56817 22-457): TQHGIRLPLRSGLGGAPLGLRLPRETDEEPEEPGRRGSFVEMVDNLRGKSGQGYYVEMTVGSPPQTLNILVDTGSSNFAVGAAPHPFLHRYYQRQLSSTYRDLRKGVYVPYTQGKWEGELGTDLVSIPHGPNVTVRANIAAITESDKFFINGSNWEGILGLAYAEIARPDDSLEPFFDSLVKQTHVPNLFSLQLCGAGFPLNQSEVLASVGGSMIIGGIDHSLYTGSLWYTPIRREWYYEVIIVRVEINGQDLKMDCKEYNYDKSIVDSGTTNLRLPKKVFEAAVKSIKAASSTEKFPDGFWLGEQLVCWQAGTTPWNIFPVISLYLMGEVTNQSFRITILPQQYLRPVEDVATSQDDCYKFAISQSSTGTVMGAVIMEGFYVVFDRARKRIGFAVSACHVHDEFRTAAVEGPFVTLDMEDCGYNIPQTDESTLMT
BACE1 of 293-HEK cells stably expressing wild-type human APP, sequence (P56817 46-501): as the sequence (P56818 46-501) above, with S6P, I162V, I165L, T180S, A182V, V340I, A393L, H443Q counted along it

B1: Fab LC 4 (Fab, V domains shown)
VH: EVQLVESGGGLVQPGGSLRLSCAASGFNLSYSYIHWVRQAPGKGLEWVASIYSSYGSTYYADSVKGRFTISADTSKNTAYLQMNSLRAEDTAVYYCARSYHHSDKYYYAWSYALDYWGQGTLVTVSS
VL: DIQMTQSPSSLSASVGDRVTITCRASQSVSSAVAWYQQKPGKAPKLLIYSASSLYSGVPSRFSGSGSGTDFTLTISSLQPEDFATYYCQQYSYSLLTFGQGTKVEIK
Competition ELISA Ratio [1]: 6.3
ratio of ELISA signal in the absence to the presence of BACE1 in solution [2]: > 4 ratio
IC50 (nM), HTRF enzyme activity assay [3]: 480 nM
Fold affinity improvement [4]: 45 fold
IC50 [5]: 0.46 nM

B2: Fab LC 6 (Fab, V domains shown)
VH: EVQLVESGGGLVQPGGSLRLSCAASGFNFYYSSIHWVRQAPGKGLEWVASISPYSGYTSYADSVKGRFTISADTSKNTAYLQMNSLRAEDTAVYYCARQPTHYYYYAKGYKAMDYWGQGTLVTVSS
VL: B1 VL with Y49S, S50W, S53W, L95P, L96F
improvement in inhibition activity against parent Fab 12, HTRF enzyme activity assay [6]: ~20 fold
IC50 (nM), HTRF enzyme activity assay [3]: 160 nM
IC50 (read off the curve) [7]: ~0.3 nM

B3: Fab LC10 (Fab, V domains shown)
VH: B2 VH
VL: B1 VL with Y49W, S50W, L95P, L96F
improvement in inhibition activity against parent Fab 12, HTRF enzyme activity assay [6]: ~20 fold

B4: Fab LC 9 (Fab, V domains shown)
VH: B2 VH
VL: B1 VL with Y49W, S50Y, S53W, L95P, L96F
improvement in inhibition activity against parent Fab 12, HTRF enzyme activity assay [6]: ~20 fold
IC50 (nM), HTRF enzyme activity assay [3]: 140 nM

B5: YW412.8.31 anti-BACE1 human IgG (antibody, V domains shown)
VH: EVQLVESGGGLVQPGGSLRLSCAASGFTFLGYGIHWVRQAPGKGLEWVGWISPAGGSTDYADSVKGRFTISADTSKNTAYLQMNSLRAEDTAVYYCARGPFSPWVMDYWGQGTLVTVSS
VL: B1 VL with S28D, S31T, S53F, Y91F, S92P, Y93T, S94Y, L96P
notes: also called YW412.8.31 antibody
Kd (Guinea pig BACE1): 2.6 nM
koff (Guinea pig BACE1): 0.00027 s⁻¹
kon (Guinea pig BACE1): 100000 M⁻¹ s⁻¹
IC50, Aβ40 production in DRG neurons [8]: 8.4 nM
IC50, Aβ40 production in cortical and hippocampal neurons [8]: 2.3 to 2.6 nM
IC50, HTRF long peptide assay [6]: 1.7 nM
IC50, microfluidic capillary electrophoresis assay [6]: 0.08 nM
IC50, short FRET peptide assay [6]: 17 nM
IC50, Aβ1-40 production in APP-expressing 293 cells [9]: 17 nM
binding result [10]: no binding
Kd [11]: 1.32 nM
koff [11]: 0.000139 s⁻¹
kon [11]: 105000 M⁻¹ s⁻¹
Kd [12]: 2.9 nM
koff [12]: 0.00031 s⁻¹
kon [12]: 110000 M⁻¹ s⁻¹

B6: Fab LC 40 (Fab, V domains shown)
VH: EVQLVESGGGLVQPGGSLRLSCAASGFNVSSSSMHWVRQAPGKGLEWVASIYPYSSSTSYADSVKGRFTISADTSKNTAYLQMNSLRAEDTAVYYCARYSYYSYGIDYWGQGTLVTVSS
VL: DIQMTQSPSSLSASVGDRVTITCRASQYSYSYSVAWYQQKPGKAPKLLISYASYLYSGVPSRFSGSGSGTDFTLTISSLQPEDFATYYCQQYSYSYSPITFGQGTKVEIK
Fold affinity improvement [13]: 3 fold
Competition ELISA Ratio [1]: 3
ratio of ELISA signal in the absence to the presence of BACE1 in solution [2]: > 3 ratio
IC50 [5]: 4.7 nM

B7: Fab 12 (Fab, V domains shown)
VH: B2 VH
VL: B1 VL with L95P, L96F
Fold affinity improvement [14]: 1 fold
IC50 [5]: 45.3 nM
